Where a chain is given by its changes, count along the chain named.
B1: 2-43-1 (antibody, V domains shown)
VH: EVQLLESGGGLVQPGGSLRLSCAASGFTFSSYAMSWVRQAPGKGLEWVSAISGSGGSTFYADSVTGRFTISRDNSKNTLFLQLNSLRAEDTAVYHCAKDGRFNWNYGASDIWGQGTMVTVSS
VL: EIVMTQSPATLSVSPGERATLSCRTSQSVSSNLAWYQQKPGQAPRLLIYGASTRATGIPARFSGSGSGTEFTLTISSLQSEDFAVYYCQQYNNWPLTFGGGTKVEIKR
B2: 2-177-1 (antibody, V domains shown)
VH: EVQLLESGGGLIQPGGSLRLSCAASGFTFSSFAMSWVRQAPGKGLEWVSTISGSGGSTYYADFVKGRFTISRDNSKNTLYLQMNSLRAEDTAVYYCAKDGRYNWNYGAFDIWGQGTMVTVSS
VL: B1 VL with T25A, S30R, Y36F
B3: 2-112-1 (antibody, V domains shown)
VH: B2 VH with S57Y, Y59F, F63S
VL: B1 VL with T25A, I58F, V85I
B4: 1-257-1 (antibody, V domains shown)
VH: EVQLVESGGGLVKPGGSLRLSCAASGFTFSSYSMNWVRQAPGKGLEWVSSISSSSSYIYYADSVKGRFTISRDNAKNSLYLQMNSLRAEDTAVYYCARDRGYYYGMDVWGQGTTVTVSS
VL: DIQMTQSPSSLSASVGDRVTLTCRASQGIRNALGWYQQKPGKAPKRLIYGASSLQSGVPSRFSGSGSGTEFTLTISSLQPEDFATYYCLQHNSYPFTFGPGTKVDIKR
B5: 1-116-1 (antibody, V domains shown)
VH: B4 VH with Y103S, M106L, V108Y, T114L
VL: B4 VL with L21I, K45Q, G50A, F96R, P100Q, D105E
B6: 1-66-1 (antibody, V domains shown)
VH: B4 VH with Y103S, M106L, V108Y, T114L
VL: B4 VL with L21I, A32D, G50A, H91L
B7: 1-268-1 (antibody, V domains shown)
VH: B4 VH with Y102S, Y104F, G105L, M106F, V108Y, T114L
VL: B4 VL with I2M, L21I, A32D, F83S, F96L, P100G, D105E
B8: 1-136-3 (antibody, V domains shown)
VH: B4 VH with Y103S, M106I, V108Y, T114L
VL: B4 VL with L21I, G50A, F96R, P100Q, D105E
B9: 1-314-1 (antibody, V domains shown)
VH: B4 VH with A92T, Y103L
VL: B4 VL with L21I, G28A, A32D, G50A, F96R, P100Q, D105E

Biological target: mature GDF8 (UniProt O14793 267-375)
Sequence (O14793 267-375): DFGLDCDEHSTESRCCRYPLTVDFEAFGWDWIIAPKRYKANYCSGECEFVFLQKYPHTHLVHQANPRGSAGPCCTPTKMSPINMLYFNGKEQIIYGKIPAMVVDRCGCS
Assay: BIAcore

| Binder | Kd [nM] |
| --- | --- |
| B1 | 1.5 |
| B2 | 0.89 |
| B3 | 0.011 |
| B4 | 0.16 |
| B5 | 0.012 |
| B6 | 0.083 |
| B7 | 0.24 |
| B8 | 0.043 |
| B9 | 0.11 |

Reference: US20060263354A1 (published 2006)
